Laboratory results from patent publication US20230105982A1 (Merck Sharp & Dohme, published 2023).
Starred links: 1 amine or outer side, 2 acyl side, 3 side chain; linkers in the order of their positions; H or OH if unused. Non-standard residues stand in square brackets, D forms with d. Groups on a side chain read outwards from the residue. No end group written: not given here. *: point of attachment. C16 = C16 fatty acyl group, not further defined; C18 diacid = O=C(O)CCCCCCCCCCCCCCCCC(=O)*; Lys(N3) = [N-]=[N+]=NCCCC[C@H](N)C(=O)O; γGlu = O=C(O)[C@H](CCC(=O)[*:2])N[*:1]; Met(O2) = CS(=O)(=O)CC[C@H](N)C(=O)O; Palmitoyl = CCCCCCCCCCCCCCCC(=O)*; AEEA = NCCOCCOCC(=O)O; Aib = CC(C)(N)C(=O)O

What was measured:
Test in all cases: cell-based or functional assay
[1] = biological target: human Glucagon receptor (GCGR) (human, UniProt P47871 26-477)
[2] = biological target: human GLP-1 receptor (GLP1R) (human, UniProt P43220 24-463)
[3] = biological target: human glucagon receptor (human, UniProt P47871 26-477)
[4] = biological target: human GLP-1 receptor (human, UniProt P43220 24-463)

Binder | hGCGR_EC50 (nM), cAMP assay [1] [nM] | hGLP1R EC50 (nM), cAMP assay [2] [nM] | Incretin Receptor Assay (cAMP) EC50 [3] [nM] | Incretin Receptor Assay (cAMP) EC50 [4] [nM]
H[Aib]QGTFTSDYSKYLDARAAK([AEEA-AEEA-γGlu-C20‑OH])DFV[Lys(N3)]WL[Met(O2)]DT-NH2 [PEP31] | 4.24 | 1.38 | – | –
H[Aib]QGTFTSDYSKYLDARAAK([AEEA-AEEA-γGlu-C18 diacid])DFV[Lys(N3)]WL[Met(O2)]DT-NH2 [PEP30] | 2.27 | 0.5 | – | –
H[dS]QGTFTSDK([γGlu-γGlu-Palmitoyl])SKYLDERAAQDFVQWLLDT-NH2 (N-terminus assumed; SMILES CCCCCCCCCCCCCCCC(=O)N[C@@H](CCC(=O)N[C@@H](CCC(=O)NCCCC[C@H](NC(=O)[C@H](CC(=O)O)NC(=O)[C@H](CO)NC(=O)[C@@H](NC(=O)[C@H](Cc1ccccc1)NC(=O)[C@@H](NC(=O)CNC(=O)[C@H](CCC(N)=O)NC(=O)[C@@H](CO)NC(=O)[C@@H](N)Cc1c[nH]cn1)[C@@H](C)O)[C@@H](C)O)C(=O)N[C@@H](CO)C(=O)N[C@@H](CCCCN)C(=O)N[C@@H](Cc1ccc(O)cc1)C(=O)N[C@@H](CC(C)C)C(=O)N[C@@H](CC(=O)O)C(=O)N[C@@H](CCC(=O)O)C(=O)N[C@@H](CCCNC(=N)N)C(=O)N[C@@H](C)C(=O)N[C@@H](C)C(=O)N[C@@H](CCC(N)=O)C(=O)N[C@@H](CC(=O)O)C(=O)N[C@@H](Cc1ccccc1)C(=O)N[C@H](C(=O)N[C@@H](CCC(N)=O)C(=O)N[C@@H](Cc1c[nH]c2ccccc12)C(=O)N[C@@H](CC(C)C)C(=O)N[C@@H](CC(C)C)C(=O)N[C@@H](CC(=O)O)C(=O)N[C@H](C(N)=O)[C@@H](C)O)C(C)C)C(=O)O)C(=O)O) [PEP76 (control molecule of Table 7)] | – | – | 0.009 | 0.007
HXEGTFTSDKSKYLDERAAQDFVXWLLDT (D-serine at 2; Lys 10 conjugated to γEγE-C16; Nle(εN3) at 24; C-terminal amide) [PEP75] | > 5 | – | – | –
H[dS]QGTFTSDK([γGlu-γGlu-C16])SKYLDERAAQ[Lys(N3)]FVQWLLDT-NH2 [PEP1] | 0.01 | – | – | –
